Results on 1 molecule are retold here after patent CN106754740A.

In the test the target is 纯化的重组蛋白MDR-1 (原核表达, PET28a-MDR-1, 大肠杆菌BL21) (human) (UniProt P08183). Kind of test: direct ELISA, purified antibody diluted 1:200 to 1:12800 on plate coated with purified MDR-1 protein (10 μg/ml), goat anti-mouse IgG-HRP, OD450. For orientation: ELISA stands for enzyme-linked immunosorbent assay.

Some results are limits rather than exact numbers.

UniProt P08183, sequence (P08183 whole entry): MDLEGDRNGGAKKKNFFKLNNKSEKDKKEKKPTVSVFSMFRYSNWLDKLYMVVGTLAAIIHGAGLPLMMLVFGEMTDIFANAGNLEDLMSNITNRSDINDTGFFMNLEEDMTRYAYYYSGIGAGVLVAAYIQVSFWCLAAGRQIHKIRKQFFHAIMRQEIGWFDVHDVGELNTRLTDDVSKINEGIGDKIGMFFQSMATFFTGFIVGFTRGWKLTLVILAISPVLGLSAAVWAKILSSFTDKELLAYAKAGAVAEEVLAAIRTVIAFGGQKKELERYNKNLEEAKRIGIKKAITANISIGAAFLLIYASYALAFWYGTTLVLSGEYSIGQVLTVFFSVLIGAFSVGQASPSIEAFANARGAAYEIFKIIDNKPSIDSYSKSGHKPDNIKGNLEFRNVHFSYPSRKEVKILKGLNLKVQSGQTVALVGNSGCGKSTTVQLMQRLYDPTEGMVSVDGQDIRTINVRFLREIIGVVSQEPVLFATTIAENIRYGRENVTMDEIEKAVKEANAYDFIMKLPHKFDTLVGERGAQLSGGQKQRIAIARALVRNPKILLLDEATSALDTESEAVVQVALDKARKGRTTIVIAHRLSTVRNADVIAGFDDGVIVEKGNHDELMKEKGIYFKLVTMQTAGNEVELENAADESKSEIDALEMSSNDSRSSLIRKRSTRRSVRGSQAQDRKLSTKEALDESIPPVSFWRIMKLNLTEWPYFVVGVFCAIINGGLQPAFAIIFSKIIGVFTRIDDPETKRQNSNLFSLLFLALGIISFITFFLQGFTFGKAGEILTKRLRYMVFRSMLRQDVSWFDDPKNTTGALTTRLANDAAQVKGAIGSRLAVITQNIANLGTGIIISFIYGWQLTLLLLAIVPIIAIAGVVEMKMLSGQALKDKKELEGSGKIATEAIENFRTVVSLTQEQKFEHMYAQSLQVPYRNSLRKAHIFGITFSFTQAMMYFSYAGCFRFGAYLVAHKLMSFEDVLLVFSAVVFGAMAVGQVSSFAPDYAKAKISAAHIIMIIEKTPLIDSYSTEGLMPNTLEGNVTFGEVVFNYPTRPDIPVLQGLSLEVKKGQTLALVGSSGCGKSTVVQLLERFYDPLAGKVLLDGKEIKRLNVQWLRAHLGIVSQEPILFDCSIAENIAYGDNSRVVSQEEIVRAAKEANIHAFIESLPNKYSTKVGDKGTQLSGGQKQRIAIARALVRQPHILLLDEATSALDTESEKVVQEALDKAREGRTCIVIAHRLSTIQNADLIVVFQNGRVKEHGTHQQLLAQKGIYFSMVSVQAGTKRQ

B1: 小鼠抗人MDR-1单克隆抗体 (杂交瘤细胞株6C6, CGMCC No. 6917 产生) (antibody, part only; not given: light chain variable region, constant regions, V domains shown, part only)
VH: LGISTMNFGLSWVFLVLVLKGVQCEVKLVESGGGLVKPGGSLKLSCAASGFTFSNYAMSWVRQTPEKRLEWVASISSGGGGSTYYPDSVKGRFTISRDNARNILYLLMSSLRSEDTAMYYVCVMSLSEQSSCINLP
Take B1: the ELISA滴度 (dilution (1:x)) is over 10000.
